The series addresses T1, ROS3 (Arabidopsis thaliana, UniProt Q9FGT1 1-748).
T1 sequence: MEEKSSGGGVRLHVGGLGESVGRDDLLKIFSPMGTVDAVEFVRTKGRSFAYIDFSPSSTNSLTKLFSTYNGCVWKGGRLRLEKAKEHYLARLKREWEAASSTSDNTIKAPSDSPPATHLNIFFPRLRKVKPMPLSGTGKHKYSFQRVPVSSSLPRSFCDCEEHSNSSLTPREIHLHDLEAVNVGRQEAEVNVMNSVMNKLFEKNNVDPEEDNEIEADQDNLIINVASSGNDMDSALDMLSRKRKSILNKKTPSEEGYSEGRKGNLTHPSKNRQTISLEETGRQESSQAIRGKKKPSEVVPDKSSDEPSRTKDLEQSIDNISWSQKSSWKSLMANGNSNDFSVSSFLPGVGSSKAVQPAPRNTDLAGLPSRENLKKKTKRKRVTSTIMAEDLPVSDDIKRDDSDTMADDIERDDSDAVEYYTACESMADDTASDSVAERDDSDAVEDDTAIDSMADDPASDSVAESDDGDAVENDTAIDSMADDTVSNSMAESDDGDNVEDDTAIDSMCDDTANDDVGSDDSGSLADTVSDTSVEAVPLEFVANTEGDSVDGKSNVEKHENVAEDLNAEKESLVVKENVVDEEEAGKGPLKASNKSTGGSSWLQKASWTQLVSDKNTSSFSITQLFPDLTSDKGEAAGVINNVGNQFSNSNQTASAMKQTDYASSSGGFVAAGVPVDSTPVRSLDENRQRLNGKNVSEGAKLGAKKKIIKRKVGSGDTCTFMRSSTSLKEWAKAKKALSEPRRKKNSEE
Briefly: EMSA. For orientation: Mobility shift assays separate free from complexed probe on a gel.

Experimental findings from paper PMC2782394 are described below.

Regarding UCGGGAGGGAAGCGGAUGGGGGCCG (ssRNA) [RNA (d) 25-nt], the binding result is listed as “binds”.
To GGGAGUCCGGAGACGUCGGCGGGGG (ssRNA) [RNA (c) 25-nt] belongs “binds”.
